{"source": "patent US6420532B1", "about": "“Method of obtaining compositions comprising Y2 specific compounds” (Synaptic Pharmaceutical Corporation, priority 1994, dated 2002)", "molecules": {"B1": {"name": "porcine NPY16-36 (peptide, UniProt P01304 25-45, looked up)", "peptide": "DLARYYSALRHYINLITRQRY-NH2", "notes": "range 16-36; also called NPY16-36, porcine"}, "B2": {"name": "porcine NPY22-36 (peptide, UniProt P01304 31-45, looked up)", "peptide": "SALRHYINLITRQRY-NH2", "notes": "range 22-36; also called NPY22-36, porcine"}}, "key": {"[1]": {"test_system": "Y1 receptor", "experiment": "Whole cell 125I-PYY binding, COS-7 cells transfected with the Y1 gene", "set-up": "species or system human", "conditions": "100 fold excess of cold peptide", "procedure": "DNA from pools of ≈5000 independent clones was transfected into COS-7 cells by a modification of the DEAE-dextran procedure (17). COS-7 cells were grown in Dulbecco's Modified Eagle Medium (DMEM) supplemented with 10% fetal calf serum, 100 U/mL of penicillin, 100 μg/mL of streptomycin, 2 mM L-glutamine (DMEM-C) at 37° C. in 5% CO2. The cells were seeded one day before transfection at a density of 30,000 cells/cm^2 in 6 well plates (Becton Dickinson, Lincoln Park, N.J.). On the next day, cells were washed twice with Phosphate Buffer Saline (PBS), 400 μl of transfection cocktail was added containing 1/10 of the DNA from each pool and DEAE-dextran (500 μg/mL) in PBS. After a 30 min. incubation at 37° C., 1.6 mL of chloroquine (80 μM in DMEM-C) was added and the cells incubated a further 2.5 hours at 37° C. The media was aspirated from each well and 1 mL of 10% DMSO in DMEM-C added. After 2.5 min. incubation at room temperature, the media was aspirated, each well washed once with 1 mL PBS and the cells incubated 24 hours in DMEM-C. […]\nSince both Y1 and Y2 receptor subtypes are expressed in the hippocampus (2), we analyzed the DNA of positive pools by PCR with Y1 specific primers. […]"}, "[2]": {"molecular_target": "T1, human Y1 receptor (human, UniProt P25929 1-384)", "T1 construct": "whole, on cells; transiently expressed in COS-7 cells; membranes used; also called Y1 gene", "T1 sequence (looked up)": "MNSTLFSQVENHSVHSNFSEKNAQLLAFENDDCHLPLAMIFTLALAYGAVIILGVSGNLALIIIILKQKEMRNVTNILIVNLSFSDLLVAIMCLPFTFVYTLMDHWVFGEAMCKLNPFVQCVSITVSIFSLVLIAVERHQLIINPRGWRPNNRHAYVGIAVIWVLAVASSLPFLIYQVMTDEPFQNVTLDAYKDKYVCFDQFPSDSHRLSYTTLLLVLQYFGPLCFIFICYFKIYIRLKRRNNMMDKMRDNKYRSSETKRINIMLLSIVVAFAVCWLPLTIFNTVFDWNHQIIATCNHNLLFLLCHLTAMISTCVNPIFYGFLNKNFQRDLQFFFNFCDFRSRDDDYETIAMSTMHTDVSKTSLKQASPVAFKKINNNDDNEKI", "experiment": "125I-PYY displacement, COS-7 membranes, Ki from IC50"}, "[3]": {"molecular_target": "human hippocampal Y2 receptor (clone CG-13) (human) (UniProt P49146)", "experiment": "125I-PYY displacement, COS-7 membranes, Ki from IC50"}, "[4]": {"molecular_target": "T2, human Y4 receptor (human, UniProt P50391 1-375)", "T2 construct": "whole, on cells; transiently expressed in COS-7 cells; membranes used", "T2 sequence (P50391 whole entry)": "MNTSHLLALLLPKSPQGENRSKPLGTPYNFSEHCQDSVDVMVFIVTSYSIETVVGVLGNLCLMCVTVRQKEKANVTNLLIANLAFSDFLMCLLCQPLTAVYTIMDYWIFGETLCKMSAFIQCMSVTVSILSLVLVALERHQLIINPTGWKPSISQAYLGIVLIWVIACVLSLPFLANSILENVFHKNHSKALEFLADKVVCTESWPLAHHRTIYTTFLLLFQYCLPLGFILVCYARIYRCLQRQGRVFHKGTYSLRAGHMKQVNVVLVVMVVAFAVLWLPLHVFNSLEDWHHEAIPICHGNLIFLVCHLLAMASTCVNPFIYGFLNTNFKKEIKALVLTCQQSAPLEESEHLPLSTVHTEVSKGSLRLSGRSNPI", "experiment": "125I-PYY displacement, COS-7 membranes, Ki from IC50"}, "[5]": {"molecular_target": "T3, human Y2 receptor (Homo sapiens, UniProt P49146)", "T3 sequence (P49146 1-381)": "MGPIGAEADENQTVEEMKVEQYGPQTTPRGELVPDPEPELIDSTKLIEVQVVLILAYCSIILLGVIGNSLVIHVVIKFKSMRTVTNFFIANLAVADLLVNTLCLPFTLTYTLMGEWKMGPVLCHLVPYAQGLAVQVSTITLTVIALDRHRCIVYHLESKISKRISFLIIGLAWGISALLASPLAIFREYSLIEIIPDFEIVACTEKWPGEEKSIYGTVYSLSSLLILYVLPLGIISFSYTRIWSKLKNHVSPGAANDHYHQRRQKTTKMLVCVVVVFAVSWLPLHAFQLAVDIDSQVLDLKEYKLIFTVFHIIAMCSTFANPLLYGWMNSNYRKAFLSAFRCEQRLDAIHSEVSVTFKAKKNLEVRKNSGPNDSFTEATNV", "experiment": "Intracellular calcium mobilization (Fura-2/AM), stably transfected 293 cells", "conditions": "pretreatment 100 ng/ml for 24 hours"}, "[6]": {"molecular_target": "human hippocampal Y2 receptor (clone CG-13) (human) (UniProt P49146)", "experiment": "cell-based or functional assay"}, "[7]": {"molecular_target": "rat Y2a receptor (encoded by rs5a) (rat)", "experiment": "125I-PYY displacement, COS-7 membranes, Ki from IC50"}, "[8]": {"molecular_target": "human hippocampal Y2 receptor (clone CG-13) (human) (UniProt P49146)", "experiment": "125I-PYY displacement, COS-7 membranes, Ki from IC50", "remark": "listed apart in the source"}, "[9]": {"molecular_target": "T4, CG-13 receptors (human Y2 receptor) (Homo sapiens, UniProt P49146)", "T4 construct": "expressed in transfected cells; host or cells: COS-7 (transient, DEAE-dextran)", "T4 sequence (P49146 1-381)": "T3 sequence (P49146 1-381)", "experiment": "Competitive displacement of 125I-PYY, membranes of COS-7 cells transiently expressing CG-13 (human Y2)", "format": "binding", "conditions": "100 μM Gpp(NH)p, human Y2 in COS-7"}, "[10]": {"molecular_target": "T5, rat Y2a receptor (Rattus norvegicus, UniProt Q9ERC0)", "T5 construct": "expressed in transfected cells; host or cells: COS-7 (transient); 4.0 kb EcoRI genomic fragment of rs5a in EXJ.RH", "T5 sequence (Q9ERC0 1-381)": "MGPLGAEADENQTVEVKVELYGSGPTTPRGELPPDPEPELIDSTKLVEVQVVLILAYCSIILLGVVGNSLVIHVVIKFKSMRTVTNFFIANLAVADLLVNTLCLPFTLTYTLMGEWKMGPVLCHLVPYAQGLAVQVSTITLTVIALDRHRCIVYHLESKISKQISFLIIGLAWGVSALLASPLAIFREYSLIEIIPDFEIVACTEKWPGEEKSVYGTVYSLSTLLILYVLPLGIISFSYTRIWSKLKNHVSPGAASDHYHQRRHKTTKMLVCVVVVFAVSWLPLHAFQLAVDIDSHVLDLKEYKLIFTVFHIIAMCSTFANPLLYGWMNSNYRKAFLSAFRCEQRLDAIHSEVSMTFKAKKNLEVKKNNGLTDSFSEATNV", "experiment": "Competitive displacement of 125I-PYY, membranes of COS-7 cells transiently expressing rat Y2a", "format": "binding", "conditions": "100 μM Gpp(NH)p, rat Y2a in COS-7"}, "[11]": {"molecular_target": "T3, human Y2 receptor", "experiment": "125I-PYY binding to membranes from 293 stable clone (293-hY2-10)", "set-up": "expressed in transfected cells", "conditions": "100 μM Gpp(NH)p, 0.08 nM 125I-PYY, 293 cell membranes"}, "[12]": {"molecular_target": "T3, human Y2 receptor", "experiment": "125I-PYY binding to membranes from stably transfected NIH-3T3 cells (N-hY2-5)", "set-up": "expressed in transfected cells", "conditions": "100 μM Gpp(NH)p, 0.08 nM 125I-PYY, NIH-3T3 cell membranes", "excerpt": "Two positive clones were identified and isolated for further study (293 clone #10 and NIH-3T3 clone #5). […] The data serve to emphasize that the receptor/G protein interactions for a given receptor clone can vary depending upon the resident G proteins in the host cell line (93). Additional factors such as receptor density and receptor reserve can also play a role (92)."}, "[13]": {"molecular_target": "T6, human hippocampal Y2 receptor (clone CG-13) (human, UniProt P49146 1-381)", "T6 construct": "381 amino acids; also called CG-13 receptor; human Y2", "T6 sequence": "T3 sequence (P49146 1-381)", "experiment": "125I-PYY displacement binding assay (Table 9, binding column)"}, "[14]": {"molecular_target": "T6, human hippocampal Y2 receptor (clone …)", "experiment": "125I-PYY displacement, COS-7 membranes, Ki from IC50"}, "[15]": {"molecular_target": "T7, Y2-like receptor population expressed by human SK-N-Be(2) neuroblastoma cells (human)", "T7 chain": "T3 sequence (P49146 1-381)", "experiment": "125I-PYY displacement, SK-N-Be(2) membranes, Ki from IC50"}, "[16]": {"molecular_target": "T6, human hippocampal Y2 receptor (clone …)", "experiment": "cell-based or functional assay"}, "[17]": {"molecular_target": "T6, human hippocampal Y2 receptor (clone …)", "experiment": "125I-PYY displacement, COS-7 membranes, Ki from IC50", "remark": "listed apart in the source"}, "[18]": {"molecular_target": "T1, human Y1 receptor", "experiment": "125I-PYY displacement, COS-7 membranes, Ki from IC50", "remark": "listed apart in the source"}}, "note": "Read-outs that look alike come from different tables or passages of the source. Where no end group is shown, it is not given here.", "data": [{"molecule": "[Leu^31,Pro^34]NPY: analog of NPY modified at residues 31 and 34, species not stated", "values": [{"measurement": "inhibition of binding of 125I-PYY", "setting": "[1]", "result": "totally inhibited"}]}, {"molecule": "PP, avian (peptide)", "values": [{"measurement": "Ki", "setting": "[2]", "result": 400, "unit": "nM"}, {"measurement": "Ki", "setting": "[3]", "result": "> 1000", "unit": "nM"}, {"measurement": "Ki", "setting": "[4]", "result": 7, "unit": "nM"}]}, {"molecule": "pertussis toxin", "values": [{"measurement": "decrease of the response to 300 nM human PYY", "setting": "[5]", "result": 93, "unit": "%"}]}, {"molecule": "PP, salmon (peptide)", "values": [{"measurement": "EC50, inhibition of forskolin-stimulated cAMP accumulation, stably transfected 293 cells", "setting": "[6]", "result": 0.07, "unit": "nM"}, {"measurement": "Ki", "setting": "[2]", "result": 0.2, "unit": "nM"}, {"measurement": "Ki", "setting": "[7]", "result": 0.17, "unit": "nM"}, {"measurement": "Ki", "setting": "[4]", "result": 3.2, "unit": "nM"}]}, {"molecule": "human NPY free acid (from UniProt P01303 29-64) (peptide)", "values": [{"measurement": "Ki", "setting": "[8]", "result": "> 300", "unit": "nM"}, {"measurement": "Ki", "setting": "[3]", "result": "> 1000", "unit": "nM"}]}, {"molecule": "Nc1nc2c(ncn2[C@@H]2O[C@H](COP(=O)(O)OP(=O)(O)NP(=O)(O)O)[C@@H](O)[C@H]2O)c(=O)[nH]1", "note": "[Gpp(NH)p]", "values": [{"measurement": "decrease of specific binding of 125I-PYY", "setting": "[9]", "result": 4, "unit": "%"}, {"measurement": "decrease of specific binding of 125I-PYY", "setting": "[10]", "result": 23, "unit": "%"}, {"measurement": "reduction of specific binding of 125I-PYY", "setting": "[11]", "result": 32, "unit": "%"}, {"measurement": "reduction of specific binding of 125I-PYY", "setting": "[12]", "result": 6, "unit": "%"}]}, {"molecule": "B1", "values": [{"measurement": "Ki", "setting": "[13]", "result": 3.6, "unit": "nM"}, {"measurement": "Ki", "setting": "[4]", "result": 54, "unit": "nM"}, {"measurement": "Ki", "setting": "[14]", "result": 3.6, "unit": "nM"}, {"measurement": "Ki", "setting": "[15]", "result": 5, "unit": "nM"}, {"measurement": "EC50, inhibition of forskolin-stimulated cAMP accumulation, stably transfected 293 cells", "setting": "[16]", "result": 1.8, "unit": "nM"}, {"measurement": "Ki", "setting": "[17]", "result": 3.8, "unit": "nM"}]}, {"molecule": "B2", "values": [{"measurement": "Ki", "setting": "[13]", "result": 18, "unit": "nM"}, {"measurement": "Ki", "setting": "[14]", "result": 18, "unit": "nM"}, {"measurement": "Ki", "setting": "[15]", "result": 3.2, "unit": "nM"}, {"measurement": "EC50, inhibition of forskolin-stimulated cAMP accumulation, stably transfected 293 cells", "setting": "[16]", "result": 2.3, "unit": "nM"}, {"measurement": "Ki", "setting": "[18]", "result": 170, "unit": "nM"}, {"measurement": "Ki", "setting": "[17]", "result": 4.6, "unit": "nM"}]}]}
